This note sets out measurements from PMC4993541 (Cell Cycle, 2016).

The experiment has as its target FLAG-tagged full-length BRCA2 (human, UniProt P51587 1-3418). Description: pull-down.

FLAG-tagged full-length BRCA2, sequence (P51587 whole entry): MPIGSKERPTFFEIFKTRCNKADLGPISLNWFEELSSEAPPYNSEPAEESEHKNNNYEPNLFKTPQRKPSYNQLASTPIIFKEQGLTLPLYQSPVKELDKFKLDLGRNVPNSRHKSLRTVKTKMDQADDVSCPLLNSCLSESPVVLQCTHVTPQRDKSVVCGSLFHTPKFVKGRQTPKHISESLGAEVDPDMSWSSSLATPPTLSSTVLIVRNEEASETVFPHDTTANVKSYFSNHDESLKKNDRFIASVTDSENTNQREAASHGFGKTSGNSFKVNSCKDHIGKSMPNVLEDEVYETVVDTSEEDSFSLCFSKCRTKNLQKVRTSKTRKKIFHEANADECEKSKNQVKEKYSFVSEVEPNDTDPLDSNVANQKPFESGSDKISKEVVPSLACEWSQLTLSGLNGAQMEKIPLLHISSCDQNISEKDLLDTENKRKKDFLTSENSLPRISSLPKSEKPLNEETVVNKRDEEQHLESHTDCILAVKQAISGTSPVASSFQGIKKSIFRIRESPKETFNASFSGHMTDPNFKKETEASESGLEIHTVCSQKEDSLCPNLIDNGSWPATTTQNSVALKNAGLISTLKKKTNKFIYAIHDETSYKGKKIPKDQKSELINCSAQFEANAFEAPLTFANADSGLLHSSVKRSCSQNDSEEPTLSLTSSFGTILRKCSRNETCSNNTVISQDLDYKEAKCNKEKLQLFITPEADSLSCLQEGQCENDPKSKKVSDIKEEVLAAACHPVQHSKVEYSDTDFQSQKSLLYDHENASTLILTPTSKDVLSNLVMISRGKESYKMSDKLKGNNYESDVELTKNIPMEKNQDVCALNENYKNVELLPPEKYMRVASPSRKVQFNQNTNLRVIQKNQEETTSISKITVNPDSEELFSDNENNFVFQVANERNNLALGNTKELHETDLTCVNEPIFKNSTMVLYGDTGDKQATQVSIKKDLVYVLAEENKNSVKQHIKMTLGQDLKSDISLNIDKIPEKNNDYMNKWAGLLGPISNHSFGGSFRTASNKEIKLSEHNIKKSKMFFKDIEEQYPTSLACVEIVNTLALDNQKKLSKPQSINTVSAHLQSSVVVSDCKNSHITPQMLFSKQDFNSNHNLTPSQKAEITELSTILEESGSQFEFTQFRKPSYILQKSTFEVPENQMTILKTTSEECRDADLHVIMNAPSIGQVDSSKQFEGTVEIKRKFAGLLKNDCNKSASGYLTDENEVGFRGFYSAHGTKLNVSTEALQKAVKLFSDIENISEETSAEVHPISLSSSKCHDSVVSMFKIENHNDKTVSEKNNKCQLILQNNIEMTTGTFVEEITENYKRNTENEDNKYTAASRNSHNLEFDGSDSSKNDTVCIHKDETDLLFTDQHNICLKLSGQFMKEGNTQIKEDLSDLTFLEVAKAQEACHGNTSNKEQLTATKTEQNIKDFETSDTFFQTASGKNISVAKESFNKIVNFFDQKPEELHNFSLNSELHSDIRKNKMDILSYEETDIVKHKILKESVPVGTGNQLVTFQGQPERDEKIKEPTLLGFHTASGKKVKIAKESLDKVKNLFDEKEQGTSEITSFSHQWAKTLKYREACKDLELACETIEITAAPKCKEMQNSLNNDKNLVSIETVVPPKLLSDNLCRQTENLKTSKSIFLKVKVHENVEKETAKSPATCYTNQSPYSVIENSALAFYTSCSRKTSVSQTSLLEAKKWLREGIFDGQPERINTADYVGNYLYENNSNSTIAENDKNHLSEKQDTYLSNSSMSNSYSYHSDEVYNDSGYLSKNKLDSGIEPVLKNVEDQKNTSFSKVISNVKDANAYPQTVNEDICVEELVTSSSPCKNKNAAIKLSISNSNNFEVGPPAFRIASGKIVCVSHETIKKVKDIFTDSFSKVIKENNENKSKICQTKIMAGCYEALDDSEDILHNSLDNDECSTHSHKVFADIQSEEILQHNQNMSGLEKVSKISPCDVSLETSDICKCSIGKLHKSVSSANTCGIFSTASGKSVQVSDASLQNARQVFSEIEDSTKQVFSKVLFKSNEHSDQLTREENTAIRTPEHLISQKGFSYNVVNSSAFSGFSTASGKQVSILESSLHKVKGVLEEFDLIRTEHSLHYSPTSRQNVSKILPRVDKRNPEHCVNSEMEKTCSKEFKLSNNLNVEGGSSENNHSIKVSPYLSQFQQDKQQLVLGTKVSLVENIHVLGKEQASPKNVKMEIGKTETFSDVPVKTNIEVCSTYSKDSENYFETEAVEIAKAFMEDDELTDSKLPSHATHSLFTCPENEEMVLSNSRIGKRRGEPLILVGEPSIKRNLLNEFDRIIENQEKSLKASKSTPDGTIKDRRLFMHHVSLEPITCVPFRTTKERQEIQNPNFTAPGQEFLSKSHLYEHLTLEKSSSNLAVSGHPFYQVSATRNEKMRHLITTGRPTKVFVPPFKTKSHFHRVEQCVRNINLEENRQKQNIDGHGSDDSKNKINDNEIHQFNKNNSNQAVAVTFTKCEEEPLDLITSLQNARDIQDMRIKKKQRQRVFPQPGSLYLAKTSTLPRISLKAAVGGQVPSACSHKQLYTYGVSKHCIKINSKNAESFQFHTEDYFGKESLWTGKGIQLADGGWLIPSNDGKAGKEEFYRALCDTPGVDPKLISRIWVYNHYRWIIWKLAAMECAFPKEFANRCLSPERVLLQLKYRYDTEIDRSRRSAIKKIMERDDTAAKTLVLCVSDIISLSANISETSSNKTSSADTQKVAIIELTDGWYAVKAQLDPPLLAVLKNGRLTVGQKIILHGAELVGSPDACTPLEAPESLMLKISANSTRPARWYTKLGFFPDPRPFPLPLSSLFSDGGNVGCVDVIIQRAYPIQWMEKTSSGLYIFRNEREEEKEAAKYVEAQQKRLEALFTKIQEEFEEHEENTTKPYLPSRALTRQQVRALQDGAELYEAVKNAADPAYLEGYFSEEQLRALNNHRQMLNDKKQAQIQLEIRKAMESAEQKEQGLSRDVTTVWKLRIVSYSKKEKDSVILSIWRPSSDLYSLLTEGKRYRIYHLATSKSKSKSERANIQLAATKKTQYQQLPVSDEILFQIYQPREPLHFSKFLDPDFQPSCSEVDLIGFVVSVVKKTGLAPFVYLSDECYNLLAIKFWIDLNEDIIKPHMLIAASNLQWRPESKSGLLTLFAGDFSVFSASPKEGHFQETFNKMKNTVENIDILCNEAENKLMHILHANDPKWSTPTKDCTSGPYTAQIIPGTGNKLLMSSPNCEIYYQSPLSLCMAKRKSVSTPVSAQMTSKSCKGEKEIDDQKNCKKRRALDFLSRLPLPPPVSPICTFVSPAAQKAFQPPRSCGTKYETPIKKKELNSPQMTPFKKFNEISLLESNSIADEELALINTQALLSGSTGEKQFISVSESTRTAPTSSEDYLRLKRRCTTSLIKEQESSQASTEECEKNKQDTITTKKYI

B1: His-tagged full-length LIC2 (natural protein, human, UniProt O43237 1-492, looked up)
chain: MAPVGVEKKLLLGPNGPAVAAAGDLTSEEEEGQSLWSSILSEVSTRARSKLPSGKNILVFGEDGSGKTTLMTKLQGAEHGKKGRGLEYLYLSVHDEDRDDHTRCNVWILDGDLYHKGLLKFAVSAESLPETLVIFVADMSRPWTVMESLQKWASVLREHIDKMKIPPEKMRELERKFVKDFQDYMEPEEGCQGSPQRRGPLTSGSDEENVALPLGDNVLTHNLGIPVLVVCTKCDAVSVLEKEHDYRDEHLDFIQSHLRRFCLQYGAALIYTSVKEEKNLDLLYKYIVHKTYGFHFTTPALVVEKDAVFIPAGWDNEKKIAILHENFTTVKPEDAYEDFIVKPPVRKLVHDKELAAEDEQVFLMKQQSLLAKQPATPTRASESPARGPSGSPRTQGRGGPASVPSSSPGTSVKKPDPNIKNNAASEGVLASFFNSLLSKKTGSPGSPGAGGVQSTAKKSGQKTVLSNVQEELDRMTRKPDSMVTNSSTENEA
For the molecule B1, the binding result is listed as “binds”.
